Data taken from the supplement of paper PMC7125110.
± gives the standard error. For some of these results: Fewer inactive variants are shown than the library holds.

B1: glmS ribozyme (parent)
chain: AUAAAAGCGCCAGAACUACAGAAAUGUAGUUGACGAGGAGGAGGUUUAUCGAAUUUUCGGCGGAUGCCUCCAAA

Experiments:
Conditions in all cases: with glucosamine-6-phosphate
[1] = variants of: B1; experiment: kcat; higher = faster cleavage; RNA array
Procedure, shortened: (§1)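 Tiles of sequenced MiSeq chips were imaged over ~14 h at 37 °C. On them, barcoded ribozyme variants had been transcribed in situ by E. coli RNA polymerase and were tracked via a hybridised Cy3 probe while glucosamine-6-phosphate (40 μM to 10 mM) in HEPES/KCl/Mg(OAc)2 buffer flowed in. Per-tile medians, normalised to baseline and to non-cleaving reference variants, were fit to one- or two-exponential decays for kobs, and weighted Michaelis–Menten fits gave kcat and KM.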

[2] = variants of: B1; experiment: KM; higher = weaker cofactor use; RNA array
Procedure, shortened: as §1

[3] = variants of: B1; experiment: self-cleavage kobs at 40 uM GlcN6P; higher = faster cleavage; RNA array
Procedure, shortened: as §1

[4] = variants of: B1; experiment: self-cleavage kobs at 160 uM GlcN6P; higher = faster cleavage; RNA array
Procedure, shortened: as §1

[5] = variants of: B1; experiment: self-cleavage kobs at 2500 uM GlcN6P; higher = faster cleavage; RNA array
Procedure, shortened: as §1

[6] = variants of: B1; experiment: self-cleavage kobs at 10000 uM GlcN6P; higher = faster cleavage; RNA array
Procedure, shortened: as §1

[7] = variants of: B1; experiment: self-cleavage kobs at 640 uM GlcN6P; higher = faster cleavage; RNA array
Procedure, shortened: as §1

| Variant | kcat [1] | KM [2] | self-cleavage kobs at 40 uM GlcN6P [3] | self-cleavage kobs at 160 uM GlcN6P [4] | self-cleavage kobs at 2500 uM GlcN6P [5] | self-cleavage kobs at 10000 uM GlcN6P [6] | self-cleavage kobs at 640 uM GlcN6P [7] |
| --- | --- | --- | --- | --- | --- | --- | --- |
| U45A U46C | 0.0497 ± 0.021 s⁻¹ | 3030 ± 1500 µM | 0.000726 ± 0.00015 s⁻¹ | 0.00197 ± 0.00065 s⁻¹ | 0.0334 ± 0.017 s⁻¹ | 0.0365 ± 0.012 s⁻¹ |  |
| A14C U65A | 0.000588 ± 2.2e-05 s⁻¹ | 3100 ± 210 µM |  |  | 0.000248 ± 5e-05 s⁻¹ | 0.000453 ± 5.4e-05 s⁻¹ | 0.000103 ± 1.5e-05 s⁻¹ |
| A36C U54G | < 1e-05 s⁻¹ |  |  |  | < 1e-05 s⁻¹ | < 1e-05 s⁻¹ |  |
| U65C C71U | 0.000792 ± 0.00011 s⁻¹ | 1460 ± 510 µM |  |  | 0.000617 ± 0.00011 s⁻¹ | 0.000659 ± 8e-05 s⁻¹ | 0.000236 ± 4.3e-05 s⁻¹ |
| U30A U65C | 0.000105 ± 8e-06 s⁻¹ | 2860 ± 590 µM |  |  | 4.68e-05 ± 1.5e-05 s⁻¹ | 8.23e-05 ± 1.6e-05 s⁻¹ |  |
| C16G U31C | 0.000606 ± 0.00011 s⁻¹ | 3720 ± 980 µM |  |  | 0.000269 ± 4.6e-05 s⁻¹ | 0.000401 ± 0.00011 s⁻¹ | 8.88e-05 ± 1.7e-05 s⁻¹ |
| A15U U31A | 0.00127 ± 0.00026 s⁻¹ | 2230 ± 880 µM | 3.45e-05 ± 7.5e-06 s⁻¹ | 4.67e-05 ± 2e-05 s⁻¹ | 0.000874 ± 0.00015 s⁻¹ | 0.00101 ± 9.8e-05 s⁻¹ | 0.000289 ± 5.3e-05 s⁻¹ |
| A12C U69C | 0.0042 ± 0.0012 s⁻¹ | 1520 ± 630 µM | 0.000133 ± 2.3e-05 s⁻¹ | 0.000486 ± 0.00013 s⁻¹ | 0.00295 ± 0.00069 s⁻¹ | 0.00396 ± 0.00074 s⁻¹ | 0.000885 ± 0.0002 s⁻¹ |
| C50U A64C | < 1e-05 s⁻¹ |  |  | < 1e-05 s⁻¹ |  | < 1e-05 s⁻¹ | < 1e-05 s⁻¹ |
| G38A A52C C70A | 1.15e-05 ± 3.5e-06 s⁻¹ |  |  |  |  |  |  |
| U49G U69G | 6.03e-05 ± 2.8e-05 s⁻¹ |  |  |  | 9.67e-05 ± 2.8e-05 s⁻¹ |  | 9.69e-05 ± 3.4e-05 s⁻¹ |
| A12U U47G U57C | 0.000776 ± 0.00016 s⁻¹ | 8650 ± 3200 µM |  |  | 0.000172 ± 4.9e-05 s⁻¹ | 0.000417 ± 6.9e-05 s⁻¹ |  |
| U47C A52G | 0.000596 ± 8.2e-05 s⁻¹ | 3550 ± 750 µM |  | 3.5e-05 ± 1.7e-05 s⁻¹ | 0.000226 ± 4.3e-05 s⁻¹ | 0.000465 ± 8.9e-05 s⁻¹ | 9.21e-05 ± 1.5e-05 s⁻¹ |
| A15C U55C | 0.00633 ± 0.0012 s⁻¹ | 2200 ± 580 µM | 0.000138 ± 2e-05 s⁻¹ | 0.000383 ± 7.4e-05 s⁻¹ | 0.00302 ± 0.00052 s⁻¹ | 0.00573 ± 0.00087 s⁻¹ | 0.00121 ± 0.00034 s⁻¹ |
| G60C C70U | < 1e-05 s⁻¹ |  |  | < 1e-05 s⁻¹ |  |  |  |
| C50U | 0.000131 ± 9.2e-06 s⁻¹ | 3300 ± 600 µM |  |  | 5.29e-05 ± 1.6e-06 s⁻¹ | 9.95e-05 ± 1.6e-06 s⁻¹ | 2.57e-05 ± 1.5e-06 s⁻¹ |
| C11A U30A U45G | 2.81e-05 ± 1.1e-06 s⁻¹ | 3690 ± 410 µM |  |  |  |  |  |

| Variant | kcat [1] | KM [2] | self-cleavage kobs at 40 uM GlcN6P [3] | self-cleavage kobs at 160 uM GlcN6P [4] | self-cleavage kobs at 2500 uM GlcN6P [5] | self-cleavage kobs at 10000 uM GlcN6P [6] | self-cleavage kobs at 640 uM GlcN6P [7] |
| --- | --- | --- | --- | --- | --- | --- | --- |
| G37A C70U | 0.00286 ± 0.00083 s⁻¹ | 3800 ± 1500 µM | 4.27e-05 ± 6.4e-06 s⁻¹ | 9.55e-05 ± 1.5e-05 s⁻¹ | 0.0018 ± 0.00029 s⁻¹ | 0.00199 ± 0.00021 s⁻¹ | 0.000383 ± 4.9e-05 s⁻¹ |
| A12G G51C | < 1e-05 s⁻¹ |  | < 1e-05 s⁻¹ | < 1e-05 s⁻¹ | < 1e-05 s⁻¹ | < 1e-05 s⁻¹ |  |
| G43A C67G | 0.00156 ± 0.00014 s⁻¹ | 2110 ± 290 µM | 2.87e-05 ± 6.8e-06 s⁻¹ | 0.000114 ± 1.3e-05 s⁻¹ | 0.000994 ± 0.00015 s⁻¹ | 0.00126 ± 0.00013 s⁻¹ | 0.000321 ± 5.4e-05 s⁻¹ |
| G62C C68A | 1.29e-05 ± 3.6e-06 s⁻¹ |  |  |  |  |  |  |
| A42G U49A | 1.03e-05 ± 2.5e-06 s⁻¹ |  |  |  |  |  |  |
| C16A G51A | < 1e-05 s⁻¹ | 632 ± 220 µM |  |  |  | < 1e-05 s⁻¹ |  |
| U49G U65G | 0.0002 ± 2.3e-05 s⁻¹ | 6050 ± 1500 µM |  |  | 6.08e-05 ± 1.7e-05 s⁻¹ | 0.000124 ± 1.8e-05 s⁻¹ |  |
| U65A | 0.0061 ± 0.001 s⁻¹ | 2260 ± 500 µM | 0.00012 ± 2.4e-06 s⁻¹ | 0.000336 ± 1.5e-05 s⁻¹ | 0.00375 ± 0.00015 s⁻¹ | 0.00502 ± 0.00012 s⁻¹ | 0.00117 ± 3.3e-05 s⁻¹ |
| A12C C68A | 2.22e-05 ± 4.9e-06 s⁻¹ |  | < 1e-05 s⁻¹ | < 1e-05 s⁻¹ | 2.42e-05 ± 7.9e-06 s⁻¹ |  |  |
| G37A G41A | 0.000353 ± 0.00012 s⁻¹ |  |  | 3.21e-05 ± 1.4e-05 s⁻¹ | 0.00016 ± 2.5e-05 s⁻¹ | 0.000229 ± 4.8e-05 s⁻¹ | 3.79e-05 ± 9.7e-06 s⁻¹ |
| C10G U47G G60C | 0.000977 ± 0.00037 s⁻¹ |  |  | 0.000156 ± 5e-05 s⁻¹ | 0.000552 ± 0.00013 s⁻¹ | 0.0011 ± 0.00032 s⁻¹ | 0.000256 ± 7.5e-05 s⁻¹ |
| U30A A53U | 0.00525 ± 0.00098 s⁻¹ | 1860 ± 480 µM | 0.000128 ± 1.8e-05 s⁻¹ | 0.00035 ± 7.7e-05 s⁻¹ | 0.00272 ± 0.00042 s⁻¹ | 0.00523 ± 0.001 s⁻¹ | 0.00135 ± 0.00021 s⁻¹ |
| A14C C16G | 8.6e-05 ± 5.5e-06 s⁻¹ | 438 ± 180 µM |  |  | 8.11e-05 ± 8.9e-06 s⁻¹ | 7.9e-05 ± 6.9e-06 s⁻¹ | 4.86e-05 ± 1.2e-05 s⁻¹ |
| G43U U54G | 8.63e-05 ± 2.8e-05 s⁻¹ |  |  |  | 6.89e-05 ± 1.8e-05 s⁻¹ | 6.53e-05 ± 2.3e-05 s⁻¹ |  |
| G51U C61G | < 1e-05 s⁻¹ |  |  |  |  |  |  |
| A42U A53C | 0.000148 ± 2.3e-05 s⁻¹ | 3050 ± 1500 µM |  |  | 7.29e-05 ± 2e-05 s⁻¹ | 0.000113 ± 1.6e-05 s⁻¹ |  |
